What all share (details): protein: recombinant; tags: tag removed by TEV; chain copies: 2; label: 5'-6-FAM; blunt
Data set [1] concerns the target T1, MORC2 dephosphorylated (wild-type) (Homo sapiens, UniProt Q9Y6X9 1-1032).
T1 sequence: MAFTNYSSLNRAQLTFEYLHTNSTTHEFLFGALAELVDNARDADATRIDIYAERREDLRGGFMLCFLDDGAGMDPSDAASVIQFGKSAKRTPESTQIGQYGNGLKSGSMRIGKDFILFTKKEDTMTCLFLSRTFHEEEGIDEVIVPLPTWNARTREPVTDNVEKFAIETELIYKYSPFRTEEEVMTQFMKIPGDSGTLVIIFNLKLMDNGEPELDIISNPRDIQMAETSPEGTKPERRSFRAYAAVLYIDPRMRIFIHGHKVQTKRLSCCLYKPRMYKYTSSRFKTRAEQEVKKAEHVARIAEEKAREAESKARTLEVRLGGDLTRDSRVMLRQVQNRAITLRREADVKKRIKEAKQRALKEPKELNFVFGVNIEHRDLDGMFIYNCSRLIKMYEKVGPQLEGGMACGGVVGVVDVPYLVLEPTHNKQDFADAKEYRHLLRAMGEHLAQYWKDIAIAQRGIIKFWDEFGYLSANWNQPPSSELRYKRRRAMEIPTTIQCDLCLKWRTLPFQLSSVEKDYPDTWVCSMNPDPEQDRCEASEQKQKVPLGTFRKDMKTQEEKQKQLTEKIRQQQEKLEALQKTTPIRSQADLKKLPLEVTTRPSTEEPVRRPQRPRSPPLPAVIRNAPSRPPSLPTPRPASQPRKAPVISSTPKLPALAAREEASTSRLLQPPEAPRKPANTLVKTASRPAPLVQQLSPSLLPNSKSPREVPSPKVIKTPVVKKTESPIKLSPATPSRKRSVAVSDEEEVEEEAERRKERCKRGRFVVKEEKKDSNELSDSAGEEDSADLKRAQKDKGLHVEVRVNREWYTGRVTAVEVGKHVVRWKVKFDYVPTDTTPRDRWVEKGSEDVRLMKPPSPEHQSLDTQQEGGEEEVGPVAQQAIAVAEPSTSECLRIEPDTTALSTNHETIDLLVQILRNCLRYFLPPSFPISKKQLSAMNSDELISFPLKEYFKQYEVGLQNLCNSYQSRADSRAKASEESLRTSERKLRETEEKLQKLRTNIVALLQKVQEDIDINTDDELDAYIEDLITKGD
The data set is described as follows: fluorescence anisotropy; apo; second listing ('5 or less'); FA/EMSA: 50 mM NaCl, 3 mM MgCl2, 20 mM Na-HEPES pH 7.4, 1 mM TCEP, 10% glycerol, 0.025 mM ZnCl2, 50 ug/ml BSA, room temperature; 1 nM nucleic acid (FA) or 20 nM DNA (EMSA). A general note: Fluorescence polarisation rises when a labelled molecule tumbles more slowly, as on binding a larger partner.

Data set [2] has as its target T1, MORC2 dephosphorylated (wild-type). The data set is described as follows: fluorescence anisotropy; apo; FA/EMSA: 50 mM NaCl, 3 mM MgCl2, 20 mM Na-HEPES pH 7.4, 1 mM TCEP, 10% glycerol, 0.025 mM ZnCl2, 50 ug/ml BSA, room temperature; 1 nM nucleic acid (FA) or 20 nM DNA (EMSA).
The next data set deals with T2, MORC2 subset N (Homo sapiens, UniProt Q9Y6X9 1-1032, K704D;R707D;K713D;K716D;K721D;K722D).
T2 sequence: T1 sequence with K704D, R707D, K713D, K716D, K721D, K722D
The description is as above.

Residue numbers refer to the chain shown, from its start. Some results are limits rather than exact numbers.

B1: Random 35mer dsDNA (dsDNA)
DNA 1: ATAGGGTCCATCAGAATTCGGATGAACTCGGTGTG
DNA 2: CACACCGAGTTCATCCGAATTCTGATGGACCCTAT
As to B1, the dissociation constant Kd was below 5 nM in data set [1], 17 ± 4 nM in data set [2] and 90 ± 20 nM in the data set with MORC2 subset N.

In general, Kd refers to the equilibrium constant for the complex coming apart.

For the origin of these results see paper PMC11879086, “Identification and characterization of a human MORC2 DNA binding region that is required for gene silencing” (Nucleic Acids Research, 2024).
